The supplement of paper PMC9170038

Tested on: MS2 coat protein
Assay: apparent KD of MS2 coat protein; designed switch direction (-1 OFF switch, 1 ON switch): -1; higher = weaker reporter binding
Procedure, shortened: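 SNAP-549-labelled MS2 coat protein was titrated, doubling from 0.7 or 1.5 nM to 3 µM, over designed RNA switches transcribed on Illumina chips by stalled E. coli RNA polymerase. Runs were done without input, with 200 uM small-molecule ligand, or with an oligonucleotide input. Apparent KD is the per-design median over clusters of curve-fitted normalised fluorescence.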

[1] = input ligand: microRNA oligo, concentration not stated
[2] = Eterna round: R95, input ligand: FMN 200 uM
[3] = Eterna round: R95, input ligand: microRNA oligo, concentration not stated
[4] = Eterna round: R95, input ligand: none

Row | Sequence | apparent KD of MS2 coat protein (input ligand: FMN 200 uM) | apparent KD of MS2 coat protein (input ligand: none) | apparent KD of MS2 coat protein [1] | apparent KD of MS2 coat protein [2] | apparent KD of MS2 coat protein [3] | apparent KD of MS2 coat protein [4]
1 | UUGUUCUGAGGAUAUACAUGAGGAUCACCCAUGUGUUUCUGCUUGGAGACUAGCGAAUGUAGAAGGCUGUUCUC [salish99_ex3_r4_021] (Eterna round: R97, puzzle: Exclusion 3) | 15.2 nM | 14.2 nM |  |  |  | 
2 | UUGUUGUAUGUAGGAUAUGCGUAUUAUUAUUAUGCAGAAGGACAUGAGGAUCACCCAUGUGUAUUAUUAUUAUAUAUUAUAUAU [Title] (Eterna round: R96, puzzle: Exclusion NG 1) | 44.3 nM | 19.7 nM | 20.8 nM |  |  | 
3 | UUGUUUUCCGCAGGAUAUGCUCCUCUAUUACUAGCAGAAGGGCGUUGAACAUGAGGAUCACCCAUGUAUGUAAUUGCUUAUUGC [JR_ExcNG1_Sub074] (Eterna round: R96, puzzle: Exclusion NG 1) | 19.3 nM | 24.4 nM | 17.5 nM |  |  | 
4 | UUUAAACAUGAGGAUCACCCAUGUAAGGAUAUACGAAUGCAGACACACACGGAUGCAAGUAGAAGGUACAAUGC [Design #9] (Eterna round: R97, puzzle: Exclusion 1) | 37.6 nM | 42.6 nM |  |  |  | 
5 | UUUAAACAUGAGGAUCACCCAUGUUAGGAUAUACGCAUGCAGACACGCACGGAUGCAAGUAGAAGGAACCAUGC [Design #6] (Eterna round: R97, puzzle: Exclusion 1) | 27.9 nM | 31.3 nM |  |  |  | 
6 | UUUAAGUCAGGAUAUACAUGAGGAUCACCCAUGUAAAAUUUUAAUUUAAUUUUAAGGUGUAGAAGGGACAAUUU [Ex3 #3] (Eterna round: R97, puzzle: Exclusion 3) | 29.5 nM | 34.9 nM |  |  |  | 
7 | UUUAAUUUUUUUUUUUUACAAGCUUUUUGCUCGUCUUAUACAUGAGGAUCACCCAUGUAAAUGGAAGGUAAAUUAUC [JMF 67] (puzzle: Sensor v3, turn-off variant 2) |  |  |  | 15.5 nM | 17.3 nM | 13.5 nM
8 | UUUAAUUUUUUUUUUUUACAAGCUUUUUGCUCGUCUUAUACAUGAGGAUCACCCAUGUAAGUGGGAAAUGAAUUAUC [JMF 99] (puzzle: Sensor v3, turn-off variant 2) |  |  |  | 53.3 nM | 419 nM | 77.9 nM
9 | UUUAAUUUUUUUUUUUUACAAGCUUUUUGCUCGUCUUAUACAUGAGGAUCACCCAUGUAGGUGAGAGAUAAAUUAUC [JMF 15] (puzzle: Sensor v3, turn-off variant 2) |  |  |  | 19.6 nM | 128 nM | 24.4 nM
10 | UUUAAUUUUUUUUUUUUACAAGCUUUUUGCUCGUCUUAUACAUGAGGAUCACCCAUGUGAGUGGAGGAUAAAUUAUC [JMF 34] (puzzle: Sensor v3, turn-off variant 2) |  |  |  | 19.4 nM | 29.2 nM | 20.4 nM
11 | UUUAAUUUUUUUUUUUUACAAGCUUUUUGCUCGUCUUAUACAUGAGGAUCACCCAUGUGGAUGGAGGAUAAAUUAUC [JMF 31] (puzzle: Sensor v3, turn-off variant 2) |  |  |  | 20.1 nM | 18.7 nM | 16.2 nM
12 | UUUAAUUUUUUUUUUUUACAAGCUUUUUGCUCGUCUUAUACAUGAGGAUCACCCAUGUGGGUAGAGGAUAAAUUAUC [JMF 28] (puzzle: Sensor v3, turn-off variant 2) |  |  |  | 38.7 nM | 61.1 nM | 36.2 nM
13 | UUUAAUUUUUUUUUUUUACAAGCUUUUUGCUCGUCUUAUACAUGAGGAUCACCCAUGUGGGUAGAGGGUAAAUUAUC [JMF 82] (puzzle: Sensor v3, turn-off variant 2) |  |  |  | 15.1 nM | 38.9 nM | 14.9 nM
14 | UUUAAUUUUUUUUUUUUACAAGCUUUUUGCUCGUCUUAUACAUGAGGAUCACCCAUGUGGGUGAAAGGUAAAUUAUC [JMF 64] (puzzle: Sensor v3, turn-off variant 2) |  |  |  | 46.8 nM | 21 nM | 54.2 nM
15 | UUUAAUUUUUUUUUUUUACAAGCUUUUUGCUCGUCUUAUACAUGAGGAUCACCCAUGUGGGUGGAAGGUAAAUUAUC [JMF 70] (puzzle: Sensor v3, turn-off variant 2) |  |  |  | 79.4 nM | 26.7 nM | 176 nM
16 | UUUACAAGCUAUAGAUCCCACAUGAGGAUCACCCAUGUUGCUGCCGGUGACGGUAGCAUAACUAUUGCUCGUCUUAU [JL TOV1 3.61] (Eterna round: R97, puzzle: Sensor, turn-off variant 1) | 150 nM | 185 nM |  |  |  | 
17 | UUUACAAGCUUUAGAUCCCACAUGAGGAUCACCCAUGUUCCUGGCCGUGAGGCUAGGUAAACUAAUGCUCGUCUUAU [JL TOV1 3.65] (Eterna round: R97, puzzle: Sensor, turn-off variant 1) | 197 nM | 244 nM |  |  |  | 

Row | Sequence | apparent KD of MS2 coat protein (input ligand: FMN 200 uM) | apparent KD of MS2 coat protein (input ligand: none) | apparent KD of MS2 coat protein [1] | apparent KD of MS2 coat protein [2] | apparent KD of MS2 coat protein [3] | apparent KD of MS2 coat protein [4]
18 | UUUAGUUGGUAAGGAUAUCCUACAUUGUUCUGGCCCGGGCAUGCUACAUGAGGAUCACCCAUGUGGGAGAAGGUGCGUCAUCGC [Design 19] (Eterna round: R96, puzzle: Exclusion NG 2) | 51.4 nM | 47.9 nM | 39.4 nM |  |  | 
19 | UUUAGUUGGUAAGGAUAUCCUACAUUGUUCUGGCCCGGGCAUGCUACAUGAGGAUCACCCAUGUGGGAGAAGGUGCGUCAUUGC [Design 20] (Eterna round: R96, puzzle: Exclusion NG 2) | 42.5 nM | 51.8 nM | 42.5 nM |  |  | 
20 | UUUAUAAUAAGAUCAAUUAAUUAACAUGAGGAUCACCCAUGUGAGGAUAUCAGCUCGUUUAGAGCUGAGAAGGCACAAUAUAAG [ExNG3/17-B2] (Eterna round: R96, puzzle: Exclusion NG 3) | 62.2 nM | 42.3 nM | 42.1 nM |  |  | 
21 | UUUAUGCUAGGAUAUGCACCCUCGAACAUGAGGAUCACCCAUGUACAAUAAAAGCAUGGAGCAGAAGGAGCUCCCA [EX5 A.24] (Eterna round: R97, puzzle: Exclusion 5) | 378 nM | 80.1 nM |  |  |  | 
22 | UUUAUGCUAGGAUAUGCACCCUCGAACAUGAGGAUCACCCAUGUACAAUAAACGCAUGGAGCAGAAGGAGCUCCGA [EX5 A.5] (Eterna round: R97, puzzle: Exclusion 5) | 203 nM | 86.7 nM |  |  |  | 
23 | UUUAUGUGAGGAUAUAGUACUCCUUCUAUUAUUAUUGAGUACUAGAAGGCACAUGAGGAUCACCCAUGUAGUAC [Ex4 - 3 - 37] (puzzle: Exclusion 4) |  |  |  |  | 24.3 nM | 
24 | UUUCCUGCGCGGGUUUUUUACAUGAGGAUCACCCAUGUCCUCUGCUUGUCUUGUCUUGGGCUUGUUUCGGGUUCGGG [-18.4, -40.2 kcal, A 8%] (Eterna round: R97, puzzle: Sensor, turn-off variant 1) | 635 nM | 1190 nM |  |  |  | 
25 | UUUGAUAGCACAGGAUAUUGUGAUUUGAGUUGACAAGAAGGGUGUACAUGAGGAUCACCCAUGUAAUGGUUGCCUCGUUGACUU [JR_ExcNG1_Sub006] (Eterna round: R96, puzzle: Exclusion NG 1) | 48.8 nM | 46.8 nM | 36 nM |  |  | 
26 | UUUGCAAGCUUAAGAUCCCACAUGAGGAUCACCCAUGUUGCUGCCGUGAGGUAGCUUUUAACUUAUGCUCGUCUUAU [JL TOV1 3.46] (Eterna round: R97, puzzle: Sensor, turn-off variant 1) | 95.7 nM | 115 nM |  |  |  | 
27 | UUUGCAAGCUUAUGAUCCCACAUGAGGAUCACCCAUGUUCCUGGCCGUGAGGCUAGGAUAACAUAUGCUCGUCUUAU [JL TOV1 3.64] (Eterna round: R97, puzzle: Sensor, turn-off variant 1) | 703 nM | 814 nM |  |  |  | 
28 | UUUGUGUAAGGAUAUGCGAGCCACGGAAAUAAAACGUGGAGGUAGAAGGUACAUGAGGAUCACCCAUGUAAAAC [Mod of Anonveat 21 - Jieux - Exclusion 4] (Eterna round: R97, puzzle: Exclusion 4) | 54.8 nM | 30 nM |  |  |  | 
29 | UUUGUUUAGGUAGGAUAUACUUUUAAUUUCUCUUUCCUUACAUGAGGAUCACCCAUGUUUACAUUGUAGAAGGACCACUUUGUU [JR_ExcNG2_Sub052] (Eterna round: R96, puzzle: Exclusion NG 2) |  |  | 16.5 nM |  |  | 
30 | UUUGUUUAUGUAGGAUAUGCCUGGCGUGCCUUUGCAGAAGGACAUGAGGAUCACCCAUGUAUUGCGGUCUGCGUUCAGAUCGCU [salish99_ExNG1_r4_037] (Eterna round: R96, puzzle: Exclusion NG 1) | 37.1 nM | 34.8 nM | 26.8 nM |  |  | 
31 | UUUGUUUGCACAGGAUAUUGUUAUUUUAUUUUUCAAGAAGGGUGUACAUGAGGAUCACCCAUGUUAAGGUUUAAUCUUUCACUU [JR_ExcNG1_Sub010] (Eterna round: R96, puzzle: Exclusion NG 1) | 346 nM | 619 nM | 479 nM |  |  | 
32 | UUUGUUUGCACAGGAUAUUGUUAUUUUUUUUUUCAAGAAGGGUGUACAUGAGGAUCACCCAUGUUAUGGUUUUAUCUUUUACUU [JR_ExcNG1_Sub011] (Eterna round: R96, puzzle: Exclusion NG 1) | 764 nM | 1270 nM | 765 nM |  |  | 
33 | UUUUAACAAGCGAGGUCCCACAUGAGGAUCACCCAUGUAGGUCAUGGAUUCCAUGGUCUUUUUGCUCGUCUUGUGUG [jl TITIN mod 9] (Eterna round: R97, puzzle: Sensor, turn-off variant 1) | 32.2 nM | 31.6 nM |  |  |  | 
